Molecular target: TTE (TBF-EGFP fusion with the TEV protease recognition sequence ENLYFQG, flanked by 4 glycines on each side, between TBF and EGFP)

B1: TEV protease (Gibco-Life Technologies) (protein)
chain: GESLFKGPRDYNPISSTICHLTNESDGHTTSLYGIGFGPFIITNKHLFRRNNGTLLVQSLHGVFKVKNTTTLQQHLIDGRDMIIIRMPKDFPPFPQKLKFREPQREERICLVTTNFQTKSMSSMVSDTSCTFPSSDGIFWKHWIQTKDGQCGSPLVSTRDGFIVGIHSASNFTNTNNYFTSVPKNFMELLTNQEAQQWVSGWRLNADSVLWGGHKVFMSKPEEPFQPVKEATQLMNELVYSQ
cleavage of TTE by TEV protease, followed by time-gated emission spectra (loss of Tb3+ to EGFP energy transfer): The absence of the chromophore peak at 510 nm indicates that the energy transfer system from Tb^3+ to the chromophore is diminished.

Source: patent US20100329990
